According to PMC9482650, “Quantitative fragmentomics allow affinity mapping of interactomes” (Nature Communications, 2022):

T1: APBA2_1, Q99767
T1 sequence (Q99767 563-664, limits assumed, looked up): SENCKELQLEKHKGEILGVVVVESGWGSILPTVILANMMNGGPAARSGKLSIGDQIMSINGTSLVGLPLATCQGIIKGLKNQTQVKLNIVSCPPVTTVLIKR

T2: APBA2_2, Q99767
T2 sequence (Q99767 654-744, limits assumed, looked up): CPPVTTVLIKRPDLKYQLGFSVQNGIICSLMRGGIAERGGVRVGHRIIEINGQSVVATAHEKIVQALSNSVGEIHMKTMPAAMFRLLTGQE

T3: DFNB31_1, Q9P202
T3 sequence (Q9P202 135-233, limits assumed, looked up): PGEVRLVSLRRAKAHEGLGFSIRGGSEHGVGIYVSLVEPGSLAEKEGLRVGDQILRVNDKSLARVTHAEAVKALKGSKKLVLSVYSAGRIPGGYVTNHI

T4: GRIP1_2, Q9Y3R0
T4 sequence (Q9Y3R0 145-248, limits assumed, looked up): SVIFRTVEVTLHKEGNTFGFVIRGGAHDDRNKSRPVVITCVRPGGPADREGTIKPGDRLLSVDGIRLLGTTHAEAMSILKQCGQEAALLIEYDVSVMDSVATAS

T5: MPDZ_10, O75970
T5 sequence (O75970 1624-1722, limits assumed, looked up): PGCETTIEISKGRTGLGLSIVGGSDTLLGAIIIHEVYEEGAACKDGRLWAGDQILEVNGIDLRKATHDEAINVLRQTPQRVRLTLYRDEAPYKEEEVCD

T6: NHERF3_1, Q5T2W1
T6 sequence (Q5T2W1 4-100, limits assumed, looked up): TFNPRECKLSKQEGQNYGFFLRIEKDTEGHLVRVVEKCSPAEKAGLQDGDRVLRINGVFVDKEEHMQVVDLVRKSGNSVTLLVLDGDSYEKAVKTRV

T7: PARD3B_1, Q8TEW8
T7 sequence (Q8TEW8 196-299, limits assumed, looked up): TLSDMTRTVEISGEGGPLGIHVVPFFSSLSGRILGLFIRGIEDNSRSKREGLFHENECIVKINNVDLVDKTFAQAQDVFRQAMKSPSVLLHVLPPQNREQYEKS

T8: PDZRN3_1, Q9UPQ7
T8 sequence (Q9UPQ7 244-349, limits assumed, looked up): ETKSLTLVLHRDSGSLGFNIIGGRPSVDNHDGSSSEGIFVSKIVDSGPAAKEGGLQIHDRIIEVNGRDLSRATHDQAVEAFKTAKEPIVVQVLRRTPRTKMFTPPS

T9: PTPN13_1, Q12923
T9 sequence (Q12923 1088-1188, limits assumed, looked up): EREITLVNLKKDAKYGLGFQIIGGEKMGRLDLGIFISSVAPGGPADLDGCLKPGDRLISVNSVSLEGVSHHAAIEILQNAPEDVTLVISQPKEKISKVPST

T10: SNTG2, Q9NY99
T10 sequence (Q9NY99 68-166, limits assumed, looked up): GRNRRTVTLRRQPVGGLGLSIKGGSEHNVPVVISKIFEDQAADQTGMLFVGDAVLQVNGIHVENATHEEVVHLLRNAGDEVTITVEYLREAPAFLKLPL

T11: TIAM2, Q8IVF5
T11 sequence (Q8IVF5 885-986, limits assumed, looked up): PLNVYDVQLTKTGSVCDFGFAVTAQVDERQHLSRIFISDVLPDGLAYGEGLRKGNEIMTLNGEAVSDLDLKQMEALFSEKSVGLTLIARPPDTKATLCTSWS


Assays:
Experiment in all cases: holdup assay
Parameters in all cases: key: below the threshold = too weak to quantify, mostly under pKd 3.1 to 4
Details in all cases: plain residues with an end cap or a label only (N-terminal biotin on a linker: ado-ado)
APBA2_1, Q99767 = target: T1, APBA2_1, Q99767
APBA2_2, Q99767 = target: T2, APBA2_2, Q99767
DFNB31_1, Q9P202 = target: T3, DFNB31_1, Q9P202
DLG4_1, P78352 = target: DLG4_1, P78352
DLG4_1, P78352, sequence (P78352 62-152): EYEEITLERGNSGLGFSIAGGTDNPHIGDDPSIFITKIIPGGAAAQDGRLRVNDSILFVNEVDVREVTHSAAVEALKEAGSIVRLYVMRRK

FRMPD2_3, Q68DX3 = target: FRMPD2_3, Q68DX3
FRMPD2_3, Q68DX3, sequence (Q68DX3 1073-1166): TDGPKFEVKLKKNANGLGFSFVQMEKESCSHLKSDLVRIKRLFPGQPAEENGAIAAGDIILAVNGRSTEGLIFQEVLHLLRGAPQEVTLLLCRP

FRMPD3, Q5JV73 = target: FRMPD3, Q5JV73
FRMPD3, Q5JV73, sequence (Q5JV73 12-100): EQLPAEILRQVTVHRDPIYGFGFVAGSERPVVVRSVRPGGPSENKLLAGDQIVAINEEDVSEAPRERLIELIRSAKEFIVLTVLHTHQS

GORASP1, Q9BQQ3 = target: GORASP1, Q9BQQ3
GORASP1, Q9BQQ3, sequence (Q9BQQ3 1-208): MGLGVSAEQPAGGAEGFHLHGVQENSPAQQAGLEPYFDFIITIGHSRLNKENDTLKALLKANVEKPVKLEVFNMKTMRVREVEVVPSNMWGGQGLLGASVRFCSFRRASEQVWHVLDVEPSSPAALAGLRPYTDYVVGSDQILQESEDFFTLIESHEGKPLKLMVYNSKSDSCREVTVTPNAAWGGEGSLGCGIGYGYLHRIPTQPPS

GRIP1_2, Q9Y3R0 = target: T4, GRIP1_2, Q9Y3R0
GRIP2_3, Q9C0E4 = target: GRIP2_3, Q9C0E4
GRIP2_3, Q9C0E4, sequence (Q9C0E4 238-339): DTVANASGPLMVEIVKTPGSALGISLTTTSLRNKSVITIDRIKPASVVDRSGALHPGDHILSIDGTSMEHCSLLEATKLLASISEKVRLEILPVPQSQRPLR

GRIP2_4, Q9C0E4 = target: GRIP2_4, Q9C0E4
GRIP2_4, Q9C0E4, sequence (Q9C0E4 446-548): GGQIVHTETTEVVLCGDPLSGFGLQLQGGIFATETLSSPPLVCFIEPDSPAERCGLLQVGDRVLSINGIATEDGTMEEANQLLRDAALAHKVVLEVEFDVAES

GRIP2_5, Q9C0E4 = target: GRIP2_5, Q9C0E4
GRIP2_5, Q9C0E4, sequence (Q9C0E4 544-642): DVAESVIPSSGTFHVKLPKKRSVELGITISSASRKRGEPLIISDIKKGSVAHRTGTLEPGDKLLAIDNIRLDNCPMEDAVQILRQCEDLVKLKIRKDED

GRIP2_6, Q9C0E4 = target: GRIP2_6, Q9C0E4
GRIP2_6, Q9C0E4, sequence (Q9C0E4 648-740): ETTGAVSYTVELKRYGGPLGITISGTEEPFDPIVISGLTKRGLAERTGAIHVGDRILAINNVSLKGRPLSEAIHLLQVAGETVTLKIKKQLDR

HTRA2, O43464 = target: HTRA2, O43464
HTRA2, O43464, sequence (O43464 355-458): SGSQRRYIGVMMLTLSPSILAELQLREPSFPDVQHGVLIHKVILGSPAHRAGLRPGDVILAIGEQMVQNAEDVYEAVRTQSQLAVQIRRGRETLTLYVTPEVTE

Inadl_2, Q8NI35 = target: Inadl_2, Q8NI35
Inadl_2, Q8NI35, sequence (Q8NI35 238-335): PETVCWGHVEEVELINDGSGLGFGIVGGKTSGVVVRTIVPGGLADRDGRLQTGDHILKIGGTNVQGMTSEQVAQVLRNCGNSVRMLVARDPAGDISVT

LAP2, Q96RT1 = target: LAP2, Q96RT1
LAP2, Q96RT1, sequence (Q96RT1 other isoform, or with tags, fused parts or gaps): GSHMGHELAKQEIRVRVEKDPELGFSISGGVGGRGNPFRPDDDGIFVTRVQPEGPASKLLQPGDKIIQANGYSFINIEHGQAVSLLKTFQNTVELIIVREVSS

LNX1_1, Q8TBB1 = target: LNX1_1, Q8TBB1
LNX1_1, Q8TBB1, sequence (Q8TBB1 261-371): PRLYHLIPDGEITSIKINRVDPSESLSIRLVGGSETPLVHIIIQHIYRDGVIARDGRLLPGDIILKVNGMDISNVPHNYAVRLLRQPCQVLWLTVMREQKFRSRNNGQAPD

LNX1_2, Q8TBB1 = target: LNX1_2, Q8TBB1
LNX1_2, Q8TBB1, sequence (Q8TBB1 371-470): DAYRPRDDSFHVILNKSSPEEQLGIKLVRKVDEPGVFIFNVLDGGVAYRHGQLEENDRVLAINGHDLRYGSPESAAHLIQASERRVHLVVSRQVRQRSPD

MAGI1_1, Q96QZ7 = target: MAGI1_1, Q96QZ7
MAGI1_1, Q96QZ7, sequence (Q96QZ7 1-106): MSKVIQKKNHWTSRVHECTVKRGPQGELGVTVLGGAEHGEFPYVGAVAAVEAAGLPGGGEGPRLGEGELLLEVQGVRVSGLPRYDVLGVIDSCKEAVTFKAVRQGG

MPDZ_10, O75970 = target: T5, MPDZ_10, O75970
NHERF2_2, Q15599 = target: NHERF2_2, Q15599
NHERF2_2, Q15599, sequence (Q15599 142-238): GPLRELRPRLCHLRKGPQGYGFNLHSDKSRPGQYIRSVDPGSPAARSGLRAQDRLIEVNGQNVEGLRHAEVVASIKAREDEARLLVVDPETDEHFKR

NHERF3_1, Q5T2W1 = target: T6, NHERF3_1, Q5T2W1
PARD3B_1, Q8TEW8 = target: T7, PARD3B_1, Q8TEW8
PARD3_3, Q8TEW0 = target: PARD3_3, Q8TEW0
PARD3_3, Q8TEW0, sequence (Q8TEW0 582-685): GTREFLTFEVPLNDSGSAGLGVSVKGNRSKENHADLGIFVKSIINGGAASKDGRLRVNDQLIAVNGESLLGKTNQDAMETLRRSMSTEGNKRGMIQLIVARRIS

PDZRN3_1, Q9UPQ7 = target: T8, PDZRN3_1, Q9UPQ7
PTPN13_1, Q12923 = target: T9, PTPN13_1, Q12923
SNTG2, Q9NY99 = target: T10, SNTG2, Q9NY99
TIAM2, Q8IVF5 = target: T11, TIAM2, Q8IVF5

Row | Binder | pKd (APBA2_1, Q99767) | pKd (APBA2_2, Q99767) | pKd (DFNB31_1, Q9P202) | pKd (DLG4_1, P78352) | pKd (FRMPD2_3, Q68DX3) | pKd (FRMPD3, Q5JV73) | pKd (GORASP1, Q9BQQ3) | pKd (GRIP1_2, Q9Y3R0) | pKd (GRIP2_3, Q9C0E4) | pKd (GRIP2_4, Q9C0E4) | pKd (GRIP2_5, Q9C0E4) | pKd (GRIP2_6, Q9C0E4) | pKd (HTRA2, O43464) | pKd (Inadl_2, Q8NI35) | pKd (LAP2, Q96RT1) | pKd (LNX1_1, Q8TBB1) | pKd (LNX1_2, Q8TBB1) | pKd (MAGI1_1, Q96QZ7) | pKd (MPDZ_10, O75970) | pKd (NHERF2_2, Q15599) | further results
1 | KSRPENGTVC [TMEM178B, H3BS89] | below the threshold | below the threshold | below the threshold | below the threshold | below the threshold | below the threshold | below the threshold | below the threshold | below the threshold | below the threshold | below the threshold | below the threshold | below the threshold | below the threshold | below the threshold | below the threshold | 4.05 | below the threshold | below the threshold | below the threshold | pKd (NHERF3_1, Q5T2W1): 3.62; pKd (PARD3B_1, Q8TEW8): below the threshold; pKd (PARD3_3, Q8TEW0): below the threshold; pKd (PDZRN3_1, Q9UPQ7): below the threshold; pKd (PTPN13_1, Q12923): 3.59; pKd (SNTG2, Q9NY99): below the threshold; pKd (TIAM2, Q8IVF5): below the threshold
2 | IQISELETNV [SLC1A7, O00341] | below the threshold | below the threshold | 4.19 | 4.44 | below the threshold | below the threshold | below the threshold | below the threshold | below the threshold | below the threshold | below the threshold | below the threshold | below the threshold | below the threshold | 4.5 | 3.91 | below the threshold | below the threshold | below the threshold | 3.56 | pKd (NHERF3_1, Q5T2W1): 3.82; pKd (PARD3B_1, Q8TEW8): below the threshold; pKd (PARD3_3, Q8TEW0): 3.68; pKd (PDZRN3_1, Q9UPQ7): 3.84; pKd (PTPN13_1, Q12923): below the threshold; pKd (SNTG2, Q9NY99): 4.91; pKd (TIAM2, Q8IVF5): below the threshold
3 | TNSKQGETTV [FZD1, Q9UP38] | below the threshold | below the threshold | 3.77 | 4.7 | 3.74 | below the threshold | below the threshold | 3.49 | below the threshold | below the threshold | below the threshold | below the threshold | 3.55 | below the threshold | 3.61 | below the threshold | 3.68 | below the threshold | below the threshold | 3.51 | pKd (NHERF3_1, Q5T2W1): below the threshold; pKd (PARD3B_1, Q8TEW8): below the threshold; pKd (PARD3_3, Q8TEW0): 3.58; pKd (PDZRN3_1, Q9UPQ7): 3.85; pKd (PTPN13_1, Q12923): below the threshold; pKd (SNTG2, Q9NY99): 4.16; pKd (TIAM2, Q8IVF5): below the threshold
4 | TFSRRPKTRV [CD226, Q15762] | 3.55 | below the threshold | below the threshold | 3.62 | below the threshold | below the threshold | 3.75 | 3.57 | below the threshold | 3.54 | below the threshold | below the threshold | below the threshold | below the threshold | below the threshold | 3.9 | below the threshold | 3.62 | 4.03 | below the threshold | pKd (NHERF3_1, Q5T2W1): below the threshold; pKd (PARD3B_1, Q8TEW8): below the threshold; pKd (PARD3_3, Q8TEW0): below the threshold; pKd (PDZRN3_1, Q9UPQ7): 3.48; pKd (PTPN13_1, Q12923): below the threshold; pKd (SNTG2, Q9NY99): 3.55; pKd (TIAM2, Q8IVF5): below the threshold
5 | AKADAQESRL [PLCB2, Q00722] | below the threshold | below the threshold | 4.11 | below the threshold | below the threshold | below the threshold | below the threshold | below the threshold | below the threshold | below the threshold | below the threshold | below the threshold | below the threshold | below the threshold | below the threshold | 3.58 | below the threshold | below the threshold | below the threshold | 5.19 | pKd (NHERF3_1, Q5T2W1): 5.58; pKd (PARD3B_1, Q8TEW8): 4.47; pKd (PARD3_3, Q8TEW0): 3.48; pKd (PDZRN3_1, Q9UPQ7): 4.42; pKd (PTPN13_1, Q12923): below the threshold; pKd (SNTG2, Q9NY99): 4.81; pKd (TIAM2, Q8IVF5): below the threshold
